Paper PMC5014153

Experiments:
Test in all cases: EMSA
Conditions in all cases: 25 mM Hepes pH 8.0, 40 mM KCl, 5 mM MgCl2, 1 mM DTT, 1 mM EDTA, 8% glycerol; 50 ng protein, 20 fmol probe; 30 min at 28 C; native PAGE
[1] = target: 6xHis-WRKY18 (Arabidopsis thaliana (Col-0?)) (UniProt Q9C5T4)
[2] = target: T1, 6xHis-WRKY40 (Arabidopsis thaliana (Col-0?)) (UniProt Q9SAH7)
T1 sequence: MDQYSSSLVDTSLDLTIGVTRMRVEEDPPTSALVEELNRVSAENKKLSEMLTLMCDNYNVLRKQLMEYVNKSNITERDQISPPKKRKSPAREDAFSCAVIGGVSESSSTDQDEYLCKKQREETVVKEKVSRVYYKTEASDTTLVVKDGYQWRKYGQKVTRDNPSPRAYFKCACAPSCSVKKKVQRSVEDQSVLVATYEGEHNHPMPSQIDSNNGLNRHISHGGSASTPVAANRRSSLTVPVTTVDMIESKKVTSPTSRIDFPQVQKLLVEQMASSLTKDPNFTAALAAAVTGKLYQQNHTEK

[3] = target: 6xHis-WRKY60 (Arabidopsis thaliana (Col-0?)) (UniProt Q9SK33)
Sequence of 6xHis-WRKY60 (Arabidopsis thaliana (Col-0?)) (Q9SK33 whole entry): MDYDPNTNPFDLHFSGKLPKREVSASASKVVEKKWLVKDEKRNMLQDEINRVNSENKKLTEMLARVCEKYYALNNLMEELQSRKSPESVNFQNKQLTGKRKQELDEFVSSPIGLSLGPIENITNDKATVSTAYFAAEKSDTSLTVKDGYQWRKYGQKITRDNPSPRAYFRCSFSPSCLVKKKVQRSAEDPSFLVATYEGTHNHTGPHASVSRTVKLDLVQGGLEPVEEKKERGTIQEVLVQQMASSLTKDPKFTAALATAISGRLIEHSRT

Sequence of 6xHis-WRKY18 (Arabidopsis thaliana (Col-0?)) (Q9C5T4 whole entry): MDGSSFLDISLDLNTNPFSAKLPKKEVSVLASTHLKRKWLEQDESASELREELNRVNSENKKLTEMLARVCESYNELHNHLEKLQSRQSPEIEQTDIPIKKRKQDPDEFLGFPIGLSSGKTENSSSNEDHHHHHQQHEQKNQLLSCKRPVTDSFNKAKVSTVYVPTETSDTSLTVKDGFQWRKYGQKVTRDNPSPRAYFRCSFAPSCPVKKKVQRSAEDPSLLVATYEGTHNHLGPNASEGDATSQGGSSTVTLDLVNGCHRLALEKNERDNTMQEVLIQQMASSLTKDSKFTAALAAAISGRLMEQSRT

AGTTGTAAAGTTCAGAAGGAAAAGTACTAAAATATGAAGTCAACGACAATCTTTAGAGTCAACCTTCCACTAAGAGTGTTGATTGGTTTGATGAAGCAGTGAAGGCTAGAAACTGAAGCAACTAGGGTTTGGGAAGTTACTGTTTTAACTTGTAACTGTTCGTTTGTTACTTCTTTGGTAAGGAAGTAAAACGGTGTTGTCTTATTGACCCAAAGTCTCCGCGGCTTGCTGAATAATCACAAACCTATTAAATATCC (double strand) [ProCRK5-2]
binding [1]: binds | binding [2]: binds | binding [3]: no binding
